Patent US20220073631A1 (QYUNS THERAPEUTICS, published 2022)
Where a chain is given by its changes, count along the chain named.

Legend:
[1] = molecular target: IL-4Rα on human cells (HEK Blue IL-4/IL-13, A549, TF-1, HFL-1, PBMCs) (human, UniProt P24394 26-825); assay: cell-based or functional assay
hIL-4Rα-Mu244 = molecular target: T1, hIL-4Rα-Mu244 (human, UniProt P24394 26-232); assay: SPR, Biacore T200, by the methods of Example 2
T1 construct: Printed positions fit the mature protein; also called S70Q/A71L/D72R; not shown: C-terminal his-tag
T1 chain: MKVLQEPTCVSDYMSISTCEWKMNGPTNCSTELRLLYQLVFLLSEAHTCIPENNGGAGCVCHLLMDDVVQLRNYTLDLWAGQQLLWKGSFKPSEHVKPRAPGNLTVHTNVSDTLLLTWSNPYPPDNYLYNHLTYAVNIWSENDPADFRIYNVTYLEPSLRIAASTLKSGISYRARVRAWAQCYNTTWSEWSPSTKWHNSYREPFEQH

hIL-4Rα-Mu245 = molecular target: T2, hIL-4Rα-Mu245 (human, UniProt P24394 26-232); assay: SPR, Biacore T200, by the methods of Example 2
T2 construct: Printed positions fit the mature protein; also called A71L/D72R/N73A; not shown: C-terminal his-tag
T2 chain: T1 chain with Q70S, N73A

hIL-4Rα-Mu241 = molecular target: T3, hIL-4Rα-Mu241 (human, UniProt P24394 26-232); assay: SPR, Biacore T200, by the methods of Example 2
T3 construct: Printed positions fit the mature protein; also called D67A/V68R/V69F; not shown: C-terminal his-tag
T3 chain: T1 chain with D67A, V68R, V69F, Q70S, L71A, R72D
Experimental: (§1) The protein A was chemically coupled to a CM5 chip, and an appropriate amount of the antibody was immobilized by a capture method such that the Rmax was less than 50 RU and the flow rate for the capture was 10 μl/min. The antigen was subject to gradient dilution, and the flow rate in the instrument was switched to 30 μl/min. The antigen was flowed through the reference channel and the channel with the immobilized antibody sequentially in an ascending order of concentration, and the running buffer was flowed through as a negative control. After each binding and dissociation was complete, the chip was regenerated with glycine, pH 1.5. Fitting was performed with the build-in software in the instrument according to a 1:1 binding model. The binding rate constant kₐ, the dissociation rate constant kd, and the equilibrium dissociation constant KD values of the antibody were calculated. Dupilumab was obtained by purchasing a commercially available medicine.
(§2) To further narrow down the key amino acids that PD2-31 binds to, multiple mutants of hIL-4Rα were designed in Loop 2 (V40FLLSEA46) and Loop 3 (M65[…]73) (Table 2). The wild-type hIL-4Rα (hIL-4Rα-ECD) and hIL-4Rα mutants were prepared using standard techniques. Briefly, the expression plasmids containing the extracellular domain of wild-type hIL-4Rα and different mutated hIL-4Rα were constructed and transfected into HEK 293F cells. After expression, the extracellular domain of wild-type hIL-4Rα and hIL-4Rα mutants with C-terminus his-tag were purified by Nickel chromatography. Purified proteins of wild-type hIL-4Rα and hIL-4Rα mutants were analyzed for interaction with PD2-31 and Dupilumab. The interaction was studied by Biacore T200, according to the methods in Example 2.

hIL-4Rα-Mu242 = molecular target: T4, hIL-4Rα-Mu242 (human, UniProt P24394 26-232); assay: SPR, Biacore T200, by the methods of Example 2
T4 construct: Printed positions fit the mature protein; also called V68R/V69F/S70Q; not shown: C-terminal his-tag
T4 chain: T1 chain with V68R, V69F, L71A, R72D
Experimental: as §1, §2

hIL-4Rα-Mu243 = molecular target: T5, hIL-4Rα-Mu243 (human, UniProt P24394 26-232); assay: SPR, Biacore T200, by the methods of Example 2
T5 construct: Printed positions fit the mature protein; also called V69F/S70Q/A71L; not shown: C-terminal his-tag
T5 chain: T1 chain with V69F, R72D
Experimental: as §1, §2

hIL-4Rα-Mu453 = molecular target: T6, hIL-4Rα-Mu453 (human, UniProt P24394 26-232); assay: SPR, Biacore T200, by the methods of Example 2
T6 construct: Printed positions fit the mature protein; also called D66A/D67A; not shown: C-terminal his-tag
Experimental: as §1, §2

hIL-4Rα-Mu239 = molecular target: T7, hIL-4Rα-Mu239 (human, UniProt P24394 26-232); assay: SPR, Biacore T200, by the methods of Example 2
T7 construct: Printed positions fit the mature protein; also called M65I/D66A/D67A; not shown: C-terminal his-tag
T7 chain: T1 chain with M65I, D66A, D67A, Q70S, L71A, R72D
Experimental: as §1, §2

hIL-4Rα-Mu240 = molecular target: T8, hIL-4Rα-Mu240 (human, UniProt P24394 26-232); assay: SPR, Biacore T200, by the methods of Example 2
T8 construct: Printed positions fit the mature protein; also called D66A/D67A/V68R; not shown: C-terminal his-tag
T8 chain: T1 chain with D66A, D67A, V68R, Q70S, L71A, R72D
Experimental: as §1, §2

[2] = molecular target: T9, human IL-4Rα (Shanghai Novoprotein Technology Co., Ltd) (human, UniProt P24394 26-232); assay: SPR, Biacore T200, antibody captured on protein A, antigen as analyte, 25 C, 1:1 model
T9 construct: Bought protein; also called hIL-4Rα; human interleukin-4 receptor alpha
Experimental: as §1

B1: Dupilumab (antibody, V domains shown)
VH: EVQLVESGGGLEQPGGSLRLSCAGSGFTFRDYAMTWVRQAPGKGLEWVSSISGSGGNTYYADSVKGRFTISRDNSKNTLYLQMNSLRAEDTAVYYCAKDRLSITIRPRYYGLDVWGQGTTVTVSS
VL: DIVMTQSPLSLPVTPGEPASISCRSSQSLLYSIGYNYLDWYLQKSGQSPQLLIYLGSNRASGVPDRFSGSGSGTDFTLKISRVEAEDVGFYYCMQALQTPYTFGQGTKLEIKR
IC50, IL-4-induced CCL-11 release activity in HFL-1 cells (FIG. 7(A)) [1]: 0.0968 µg/mL | IC50, IL-4-induced CCL-11 release activity in HFL-1 cells (FIG. 7(B)) [1]: 0.0334 µg/mL | IC50, IL-4-induced CCL-17 release activity in A549 cells (FIG. 5(A)) [1]: 0.0449 µg/mL | IC50, IL-4-induced CCL-17 release activity in A549 cells (FIG. 5(B)) [1]: 0.0449 µg/mL | IC50, IL-4-induced CCL-17 release activity in PBMCs (FIG. 9(A)) [1]: 0.029 µg/mL | IC50, IL-4-induced CCL-17 release activity in PBMCs (FIG. 9(B)) [1]: 0.0436 µg/mL | IC50, IL-4-induced STAT6 phosphorylation activity in HEK Blue IL-4/IL-13 cells (FIG. 4(A)) [1]: 0.00439 µg/mL | IC50, IL-4-induced STAT6 phosphorylation activity in HEK Blue IL-4/IL-13 cells (FIG. 4(B)) [1]: 0.00454 µg/mL | IC50, IL-4-induced proliferation activity of TF-1 cells (FIG. 6(A)) [1]: 0.0219 µg/mL | IC50, IL-4-induced proliferation activity of TF-1 cells (FIG. 6(B)) [1]: 0.0188 µg/mL | IC50, IL-13-induced CCL-11 release activity in HFL-1 cells (FIG. 7(C)) [1]: 0.0475 µg/mL | IC50, IL-13-induced CCL-11 release activity in HFL-1 cells (FIG. 7(D)) [1]: 0.0869 µg/mL | IC50, IL-13-induced CCL-17 release activity in A549 cells (FIG. 5(C)) [1]: 0.0373 µg/mL | IC50, IL-13-induced CCL-17 release activity in A549 cells (FIG. 5(D)) [1]: 0.0465 µg/mL | IC50, IL-13-induced CCL-17 release activity in PBMCs (FIG. 9(C)) [1]: 0.0984 µg/mL | IC50, IL-13-induced CCL-17 release activity in PBMCs (FIG. 9(D)) [1]: 0.082 µg/mL | IC50, IL-13-induced STAT6 phosphorylation activity in HEK Blue IL-4/IL-13 cells (FIG. 4(C)) [1]: 0.0128 µg/mL | IC50, IL-13-induced STAT6 phosphorylation activity in HEK Blue IL-4/IL-13 cells (FIG. 4(D)) [1]: 0.0127 µg/mL | IC50, IL-13-induced proliferation activity of TF-1 cells (FIG. 6(C)) [1]: 0.0205 µg/mL | IC50, IL-13-induced proliferation activity of TF-1 cells (FIG. 6(D)) [1]: 0.0149 µg/mL | Kd (hIL-4Rα-Mu244): > 10 nM | Kd (hIL-4Rα-Mu245): > 10 nM | Kd (hIL-4Rα-Mu241): 41.2 nM | koff (hIL-4Rα-Mu241): 0.00444 s⁻¹ | kon (hIL-4Rα-Mu241): 108000 M⁻¹ s⁻¹ | Kd (hIL-4Rα-Mu242): 27.3 nM | koff (hIL-4Rα-Mu242): 0.00357 s⁻¹ | kon (hIL-4Rα-Mu242): 131000 M⁻¹ s⁻¹ | Kd (hIL-4Rα-Mu243): 0.0361 nM | koff (hIL-4Rα-Mu243): 3.41e-05 s⁻¹ | kon (hIL-4Rα-Mu243): 945000 M⁻¹ s⁻¹ | Kd (hIL-4Rα-Mu453): 0.196 nM | koff (hIL-4Rα-Mu453): 3.78e-05 s⁻¹ | kon (hIL-4Rα-Mu453): 193000 M⁻¹ s⁻¹ | Kd (hIL-4Rα-Mu239): 0.223 nM | koff (hIL-4Rα-Mu239): 5.63e-05 s⁻¹ | kon (hIL-4Rα-Mu239): 253000 M⁻¹ s⁻¹ | Kd (hIL-4Rα-Mu240): 4.07 nM | koff (hIL-4Rα-Mu240): 0.000421 s⁻¹ | kon (hIL-4Rα-Mu240): 103000 M⁻¹ s⁻¹

B2: QX005N (HZD82-12) (antibody, V domains shown)
VH: EVQLVESGGGLVQPGGSLRLSCAASGFSLNSNAVGWVRQAPGKGLEYIGFINFSGITYYANWAKGRFTISRDNSKNTLYLQMNSLRAEDTAVYYCARGSAGSFDLWGQGTLVTVSS
VL: DIQMTQSPSSLSASVGDRVTITCQASESVYKNNYLAWYQQKPGKAPKLLIYRASNLASGVPSRFSGSGSGTDFTLTISSLQPEDFATYYCQGGYSSGMYPFGQGTKVEIK
notes: Humanized from rabbit clone #82, expressed as a full antibody in ExpiCHO-S cells (heavy chain 48.3 kDa, light chain 23.6 kDa)
IC50, IL-4-induced CCL-11 release activity in HFL-1 cells (FIG. 7(B)) [1]: 0.0643 µg/mL | IC50, IL-4-induced CCL-17 release activity in A549 cells (FIG. 5(B)) [1]: 0.0461 µg/mL | IC50, IL-4-induced CCL-17 release activity in PBMCs (FIG. 9(B)) [1]: 0.0678 µg/mL | IC50, IL-4-induced STAT6 phosphorylation activity in HEK Blue IL-4/IL-13 cells (FIG. 4(B)) [1]: 0.0065 µg/mL | IC50, IL-4-induced proliferation activity of TF-1 cells (FIG. 6(B)) [1]: 0.0193 µg/mL | IC50, IL-13-induced CCL-11 release activity in HFL-1 cells (FIG. 7(D)) [1]: 0.0895 µg/mL | IC50, IL-13-induced CCL-17 release activity in A549 cells (FIG. 5(D)) [1]: 0.0495 µg/mL | IC50, IL-13-induced CCL-17 release activity in PBMCs (FIG. 9(D)) [1]: 0.117 µg/mL | IC50, IL-13-induced STAT6 phosphorylation activity in HEK Blue IL-4/IL-13 cells (FIG. 4(D)) [1]: 0.0213 µg/mL | IC50, IL-13-induced proliferation activity of TF-1 cells (FIG. 6(D)) [1]: 0.0161 µg/mL | Kd [2]: 0.207 nM | koff [2]: 9.9e-05 s⁻¹ | kon [2]: 481000 M⁻¹ s⁻¹
